Where two headings read alike, the source gives them in different places.
B1: ABD1 of PLS2 (domain or fragment)
chain: EGICAIGGTSEQSSVGTQHSYSEEEKYAFVNWINKALENDPDCRHVIPMNPNTNDLFNAVGDGIVLCKMINLSVPDTIDERTINKKKLTPFTIQENLNLALNSASAIGCHVVNIGAEDLKEGKPYLVLGLLWQVIKIGLFADIELSRNEALIALLREGESLEDLMKLSPEELLLRWANYHLENAGCNKIGNFSTDIKDSKAYYHLLEQVAPKGDEEGVPAVVIDMSGLREKDDIQRAECMLQQAERLGCRQFVTATDVVRGNPKLNLAFIANLFNRYP

Tests used:
[1] = biological target: T1, F-actin (skeletal muscle actin) ( (rabbit or chicken skeletal …, UniProt P68135 1-377)); assay: co-sedimentation
[2] = biological target: T1, F-actin (skeletal muscle actin); assay: fluorescence polarisation
RD-ABD1 of PLS2 [3] = biological target: T2, RD-ABD1 of PLS2 (human, UniProt P13796 1-375); assay: fluorescence polarisation
T2 sequence: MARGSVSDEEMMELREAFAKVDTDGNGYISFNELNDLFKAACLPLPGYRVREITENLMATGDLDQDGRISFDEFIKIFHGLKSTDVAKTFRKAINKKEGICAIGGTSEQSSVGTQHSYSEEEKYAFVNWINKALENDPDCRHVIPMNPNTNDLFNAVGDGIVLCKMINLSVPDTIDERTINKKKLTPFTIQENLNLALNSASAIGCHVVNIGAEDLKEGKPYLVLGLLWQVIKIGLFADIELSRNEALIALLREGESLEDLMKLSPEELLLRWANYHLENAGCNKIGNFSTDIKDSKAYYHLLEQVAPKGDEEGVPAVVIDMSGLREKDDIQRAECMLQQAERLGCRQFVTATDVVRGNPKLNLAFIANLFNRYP

ABD1 of PLS2 = biological target: B1; assay: fluorescence polarisation
RD-ABD1 of PLS2 [4] = biological target: T2, RD-ABD1 of PLS2; assay: fluorescence polarisation; remark: listed apart in the source
[5] = biological target: T1, F-actin (skeletal muscle actin); assay: fluorescence polarisation; remark: listed apart in the source

With B1 the Kd [1] was 2600 ± 1000 nM.

B2: ABD2 of PLS2, unlabeled (domain or fragment)
chain: DIDWGALEGETREERTFRNWMNSLGVNPRVNHLYSDLSDALVIFQLYEKIKVPVDWNRVNKPPYPKLGGNMKKLENCNYAVELGKNQAKFSLVGIGGQDLNEGNRTLTLALIWQLMRRYTLNILEEIGGGQKVNDDIIVNWVNETLREAKKSSSISSFKDPKISTSLPVLDLIDAIQPGSINYDLLKTENLNDDEKLNNAKYAISMARKIGARVYALPEDLVEVNPKMVMTVFACLMGKGMKRV
Work on B2 yielded a Kd [2] of 3.6 ± 0.3 nM, a Kd (RD-ABD1 of PLS2 [3]) of 2.9 ± 0.5 nM and a Kd (ABD1 of PLS2) of 11.4 ± 0.7 nM. The Kd (RD-ABD1 of PLS2 [4]) was 3 ± 0.9 nM.

B3: full-length PLS2 (plastin 2), wild type (natural protein)
chain: MARGSVSDEEMMELREAFAKVDTDGNGYISFNELNDLFKAACLPLPGYRVREITENLMATGDLDQDGRISFDEFIKIFHGLKSTDVAKTFRKAINKKEGICAIGGTSEQSSVGTQHSYSEEEKYAFVNWINKALENDPDCRHVIPMNPNTNDLFNAVGDGIVLCKMINLSVPDTIDERTINKKKLTPFTIQENLNLALNSASAIGCHVVNIGAEDLKEGKPYLVLGLLWQVIKIGLFADIELSRNEALIALLREGESLEDLMKLSPEELLLRWANYHLENAGCNKIGNFSTDIKDSKAYYHLLEQVAPKGDEEGVPAVVIDMSGLREKDDIQRAECMLQQAERLGCRQFVTATDVVRGNPKLNLAFIANLFNRYPALHKPENQDIDWGALEGETREERTFRNWMNSLGVNPRVNHLYSDLSDALVIFQLYEKIKVPVDWNRVNKPPYPKLGGNMKKLENCNYAVELGKNQAKFSLVGIGGQDLNEGNRTLTLALIWQLMRRYTLNILEEIGGGQKVNDDIIVNWVNETLREAKKSSSISSFKDPKISTSLPVLDLIDAIQPGSINYDLLKTENLNDDEKLNNAKYAISMARKIGARVYALPEDLVEVNPKMVMTVFACLMGKGMKRV
B3 gave a Kd [1] of 5700 ± 1000 nM.

B4: fluorescein-labeled ABD2 of PLS2 (domain or fragment)
chain: DIDWGALEGETREERTFRNWMNSLGVNPRVNHLYSDLSDALVIFQLYEKIKVPVDWNRVNKPPYPKLGGNMKKLENCNYAVELGKNQAKFSLVGIGGQDLNEGNRTLTLALIWQLMRRYTLNILEEIGGGQKVNDDIIVNWVNETLREAKKSSSISSFKDPKISTSLPVLDLIDAIQPGSINYDLLKTENLNDDEKLNNAKYAISMARKIGARVYALPEDLVEVNPKMVMTVFACLMGKGMKRV
modifications: fluorescein-5-maleimide (FM) label
Binder B4 has a Kd [5] of 9.9 ± 3.7 nM.

Source: doi:10.1101/2021.12.01.470822 (bioRxiv, 2021)
